Molecular target: T1, Rae1 (NTE-deleted), chain of the crystallized heterotrimer (mouse, UniProt Q8C570 24-368)
T1 sequence (looked up): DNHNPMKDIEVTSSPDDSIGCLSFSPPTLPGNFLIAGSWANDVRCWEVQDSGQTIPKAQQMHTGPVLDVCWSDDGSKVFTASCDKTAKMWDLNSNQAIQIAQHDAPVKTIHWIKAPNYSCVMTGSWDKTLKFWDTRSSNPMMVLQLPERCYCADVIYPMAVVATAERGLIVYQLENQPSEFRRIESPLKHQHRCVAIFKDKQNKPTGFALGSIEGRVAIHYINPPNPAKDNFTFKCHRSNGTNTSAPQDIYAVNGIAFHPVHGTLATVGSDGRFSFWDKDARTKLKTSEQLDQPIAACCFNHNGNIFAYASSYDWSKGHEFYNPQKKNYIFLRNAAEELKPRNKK
Assay: crystal structure

B1: Nup98 GLEBS region, chain of the crystallized heterotrimer (domain or fragment)
chain: not shown
B1: binds.
